In test [1] the target is T1, human CD20 (human, UniProt P11836 1-297).
T1 construct: whole, on cells; also called cell surface CD20
T1 sequence (looked up): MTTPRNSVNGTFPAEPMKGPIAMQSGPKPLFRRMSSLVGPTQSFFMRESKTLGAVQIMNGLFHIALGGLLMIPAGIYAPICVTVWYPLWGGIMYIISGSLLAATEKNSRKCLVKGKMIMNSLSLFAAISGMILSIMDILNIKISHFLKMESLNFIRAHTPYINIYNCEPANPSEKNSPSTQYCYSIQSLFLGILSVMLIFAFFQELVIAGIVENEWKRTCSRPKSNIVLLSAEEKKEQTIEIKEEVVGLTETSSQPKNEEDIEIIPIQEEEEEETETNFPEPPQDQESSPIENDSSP
Kind of test: indirect immunofluorescence, flow cytometry, Raji cells, saturating mAb. As to the method:
(§1) Reactivity of human blood lymphocytes and the Raji, BJAB or DHL-4 B lymphoblastoid cell lines with anti-CD20 monoclonal antibodies at saturating concentrations or with secondary antibody alone (control). The anti-CD20 monoclonal antibodies were used at concentrations that were determined to be saturating and that gave optimal staining. 1F5, B9E9 and 1H4 (IgG2a) monoclonal antibodies were used as ascites fluid diluted 1:200. HB20-3, -4 and -25 monoclonal antibodies were used as tissue culture supernatant fluid. B1 monoclonal antibody was used at either 10 μg/mL of purified monoclonal antibody or as tissue culture supernatant fluid. In all cases, monoclonal antibody staining was visualized using PE-conjugated isotype-specific secondary antibodies with flow cytometry analysis. Values represent the mean linear fluorescence intensity of staining for each B cell population as determined by flow cytometry analysis. Results are representative of those obtained in ≧3 experiments.
On the technique in general: A flow cytometer gives signals particle by particle.

Test [2] has as its target T1, human CD20. The experiment in a line: indirect immunofluorescence, flow cytometry, human blood B cells, saturating mAb. The method, then:
as §1

The target in test [3] is T1, human CD20. The experiment in a line: indirect immunofluorescence, flow cytometry, DHL-4 cells, saturating mAb. As to the method:
as §1

For test [4], the target named is T1, human CD20. The experiment in a line: indirect immunofluorescence, flow cytometry, BJAB cells, saturating mAb. The method, then: as §1
The next test deals with T2, mouse CD20 (mouse, UniProt P19437 1-291).
T2 construct: whole, on cells; Endogenous mouse CD20 on primary B cells; also called cell-surface CD20
T2 sequence (looked up): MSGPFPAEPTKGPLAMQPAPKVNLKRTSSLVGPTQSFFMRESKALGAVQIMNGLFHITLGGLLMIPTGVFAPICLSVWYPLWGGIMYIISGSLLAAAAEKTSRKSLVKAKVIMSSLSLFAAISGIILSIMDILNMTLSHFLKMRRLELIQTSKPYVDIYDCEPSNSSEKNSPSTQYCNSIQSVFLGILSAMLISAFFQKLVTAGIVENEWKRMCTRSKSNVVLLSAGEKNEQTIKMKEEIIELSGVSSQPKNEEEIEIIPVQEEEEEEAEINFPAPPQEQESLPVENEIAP
The experiment in a line: flow cytometry, mouse spleen CD19+ B cells, mAb at 0.5 µg/mL, isotype-specific secondary antibody. As to the method:
Twelve mouse anti-mouse CD20 monoclonal antibodies, with representatives of each IgG isotype, were assessed for their ability to bind B cells and deplete them in vivo. Each monoclonal antibody reacted uniformly with CD19⁺ primary B cells in vitro with characteristic mean fluorescence intensities that were independent of monoclonal antibody isotype (FIG. 6A). When monoclonal antibody reactivity with primary B cells was assessed over a range of monoclonal antibody concentrations, most monoclonal antibodies reached saturating levels of staining when used at concentrations between 1-10 μg/mL (FIG. 6B). […] When all monoclonal antibodies were used at 0.5 μg/mL, each monoclonal antibody reacted uniformly with CD19⁺ primary B cells with characteristic low to high mean fluorescence intensities (FIG. 6C, Table 5). Similar results were obtained using a mouse CD20 cDNA-transfected pre-B cell line with anti-mouse Ig secondary antibody. Based on this analysis, the MB20-1 monoclonal antibody represented monoclonal antibodies with the lowest relative affinity/avidity, while the MB20-18 monoclonal antibody reacted strongly with B cells and stained B cells at the highest levels of all 12 anti-CD20 monoclonal antibodies (Table 5).

With B1 anti-CD20 monoclonal antibody, the mean linear fluorescence intensity (mean linear fluorescence intensity) with human CD20 [1] came to 944; in the test with human CD20 [2], 277; in the test with human CD20 [3], 486; with human CD20 [4], 700.

B1: HB20-25 monoclonal antibody (antibody, V domains shown)
VH: EVQLQESGAELVKPGASVKMSCKASGFRFTNYNLHWVKQTPGQGLEWIGAIYPGNGETSYNQKFKGKATLTADKSSSTAYMQLRSLTSGDSAVYYCARFYYYGSSYGAMDYWGQGTSVTVSS
VL: DIQMTQSPASLSVSVGETVTITCRASENIYSNLAWYQQKQGKSPQLLVYAATNLADGVPSRFSGSGSGTQYSLKINSLQSEDFGSYYCQHFWGIPWTFGGGTKLEIKR
notes: Used as tissue culture supernatant
Turning to B1, the “mean linear fluorescence intensity” value with human CD20 [1] was 1350 mean linear fluorescence intensity; with human CD20 [2], 227 mean linear fluorescence intensity; with human CD20 [3], 514 mean linear fluorescence intensity; with human CD20 [4], 849 mean linear fluorescence intensity.

B2: 1F5 anti-CD20 monoclonal antibody (antibody, V domains shown)
VH: QVQLRQPGAELVKPGASVKMSCKASGYTFTSYNMHWVKQTPGQGLEWIGAIYPGNGDTSYNQKFKGKATLTADKSSSTAYMQLSSLTSEDSAVYYCARSHYGSNYVDYFDYWGQGTTLTVSS
VL: DIVLSQSPAILSASPGEKVTMTCRASSSLSFMHWYQQKPGSSPKPWIYATSNLASGVPARFSGSGSGTSYSLTISRVEAEDAATYFCHQWSSNPLTFGAGTKLELK
With B2, the “mean linear fluorescence intensity” value with human CD20 [1] was 455 mean linear fluorescence intensity; in the test with human CD20 [2] it was 104 mean linear fluorescence intensity; with human CD20 [3] it was 169 mean linear fluorescence intensity; with human CD20 [4], 386 mean linear fluorescence intensity.

B3: B9E9 anti-CD20 monoclonal antibody (antibody, V domains shown)
VH: QVQLVQSGAELVKPGASVKMSCKASGYTFTSYNMHWVKQTPGQGLEWIGAIYPGNGDTSYNQKFKGKATLTADKSSSTAYMQLSSLTSEDSAVYYCARAQLRPNYWYFDVWGAGTTVTVSS
VL: DIVLSQSPAILSASPGEKVTMTCRASSSVSYMHWYQQKPGSSPKPWIYATSNLASGVPARFSGSGSGTSYSLTISRVEAEDAATYYCQQWISNPPTFGAGTKLELK
For B3, the “mean linear fluorescence intensity” value with human CD20 [1] is 438 mean linear fluorescence intensity; with human CD20 [2], 112 mean linear fluorescence intensity; with human CD20 [3], 162 mean linear fluorescence intensity; with human CD20 [4] it was 377 mean linear fluorescence intensity.

B4: MB20-1 monoclonal antibody (antibody, V domains shown)
VH: EVQLQESGGGLVQPGGSLKLSCAASGFTFSDYGMAWVRQAPRKGPEWVAFISNLAYSIYYADTVTGRFTISRENAKNTLYLEMSSLRSEDTAMYFCTRTGYYALDYWGQGTSVTVSS
VL: NIMMTQSPSSLAVSAGEKVTMRCKSSQSVLYSSKRKNYLAWYQQKPGKSPTLLIYWASTRESGVPDRFTGSGSGTDFTLTITSVQAEDLAVYYCHQYLSSFTFGGGTKLEIKR
notes: Mouse anti-mouse CD20 hybridoma antibody, IgG1; also called MB20-01
Take B4: in the test with mouse CD20, the “B cell reactivity (mean linear fluorescence intensity)” value (“B cell reactivity” below) is 69 mean linear fluorescence intensity.

B5: MB20-13 monoclonal antibody (antibody, V domains shown)
VH: EVQLQESGGGLVQPGGSLKLSCAASGFTFSDYGMAWVRQAPRKGPEWVAFISNLAYSIYYADTVTGRFTISRENAKNTLYLEMSSLRSEDTAMYFCTRTGYYALDYWGQGTSVTVSS
VL: EIVLAQSPTTTAASPGEKITITCSASSSITSNYLHWYQQKPGFSPKLLIYRTSNLASGVPARFSGSGSGTSYSLTIGTMEAEDVATYYCQQGSSKTLTFGAGTKLELKR
notes: Mouse anti-mouse CD20 hybridoma antibody, IgG3
Regarding B5, the “B cell reactivity” value in the test with mouse CD20 was 603 mean linear fluorescence intensity.

B6: MB20-18 monoclonal antibody (antibody, V domains shown)
VH: EVQLQESGLDLVKPGASVKISCKASGYTFTDYYMKWVKQSHGKSLDWIGDINPNNGDIIYNQKFEGKATLTVDKSSSTAYMELRSLTSEDSAVYYCARERFAYWGQGTLVTVSA
VL: SIVMTQTPKFLLVSTGDRVTITCKASQTVTNDLAWYQQKPGQSPKLLIYYASNRYTGVPDRFTGSGYGTDFTFTINTVQAEDLAVYFCQQDYSSPLTFGAGTKLELKR
notes: Mouse anti-mouse CD20 hybridoma antibody, IgG2b
For the molecule B6, in the test with mouse CD20, the “B cell reactivity” value was 729 mean linear fluorescence intensity.

B7: MB20-14 monoclonal antibody (antibody, V domains shown)
VH: EVQLQESGPELVKPGASVKISCKASGYMFTDYYIKWVKQSHGKSLEWIGDINPNNGDTIYNQKFKGKATLTVDKSSNTAYMDLRILTSEDSAVYYCARERFAYWGQGTLVTVSA
VL: EIVLTQSPTTMAASPGEKITITCSVSSSIRSNYLHWYQQKPGFSPKLLIYRTSNLASGVPARFSGSGSGTSYSLTVATMEAEDVATYYCQQGSSIPLTFGAGTKLELKR
notes: Mouse anti-mouse CD20 hybridoma antibody, IgG1
As for B7, the “B cell reactivity” value with mouse CD20 is 166 mean linear fluorescence intensity.

B8: MB20-8 monoclonal antibody (antibody, V domains shown)
VH: EVQLQESGPDLVKPGASVKISCKASGYTFTDYYMKWVKQSHGKSLDWIGDINPNNGDIIYNQKFEGKATLTVDKSSSTAYMELRSLTSEDSAVYYCARERFAYWGQGTLVTVSA
VL: EIVLTQSPTTMAASPGEKITITCSVSSNIRSNYLHWYQQKPGFSPKLLIYRTSNLASGVPARFSGSGSGTSYSLTIGTMKAEDVATYYCQQGSSIPLTFGAGTKLELKR
notes: Mouse anti-mouse CD20 hybridoma antibody, IgG2b; also called MB20-08
As for B8, the “B cell reactivity” value in the test with mouse CD20 is 240 mean linear fluorescence intensity.

B9: MB20-10 monoclonal antibody (antibody, V domains shown)
VH: EVQLQESGPDLVKPGASVKISCKASGYTFTDYYMKWVKQSHGKSLDWIGDINPNNGDIIYNQKFEGKATLTVDKSSSTAYMELRSLTSEDSAVYYCARERFAYWGQGTLVTVSA
VL: EIVLTQSPTTMAASPGEKITITCSVSSNIRSNYLHWYQQKPGFSPKLLIYRTSNLASGVPARFSGSGSGTSYSLTIGTMKAEDVATYYCQQGSSIPLTFGAGTKLELKR
notes: as for B6
Consider B9, for which the “B cell reactivity” value with mouse CD20 was 317 mean linear fluorescence intensity.

B10: MB20-7 monoclonal antibody (antibody, V domains shown)
VH: EVQLQESGPDLVKPGASVKISCKASGYMFTDYYMKWVKQSHGKSLEWIGDINPNNGDTTYNQKFEGKATLTVDKSSSTAYMELRSLTSEDSAVYYCARERFAYWGQGTLVTVSA
VL: ELVLTQSPTTKAASPGEKITITCSVSSSIRSNYLHWYQQRPGFSPKLLIYRTSNLASGVPARFSGSGSGTSYSLTIGTMEAEDVATYYCQQGSSLPLTFGAGTKLELKR
notes: Mouse anti-mouse CD20 hybridoma antibody, IgG2b; also called MB20-07
Regarding B10, the “B cell reactivity” value with mouse CD20 is 525 mean linear fluorescence intensity.

B11: MB20-2 monoclonal antibody (antibody, V domains shown)
VH: EVQLQESGPELVKPGASVKISCKASGYMFTDYYIKWVKQSHGKSLEWIGDINPNNGDTIYNQKFKGKATLTVDKSSNTAYMDLRSLTSEDSAVYYCARERFAYWGQGTLVTVSA
VL: EIVLTQSPTTMAASPGEKITITCSVSSSIRSNYLHWYQQKPGFSPKLLIYRTSNLASGVPARFSGSGSGTSYSLTVATMEAEDVATYYCQQGSSIPLTFGAGTKLELKR
notes: Mouse anti-mouse CD20 hybridoma antibody, IgG1; also called MB20-02
With B11, the “B cell reactivity” value with mouse CD20 is 209 mean linear fluorescence intensity.

B12: HB20-3 monoclonal antibody (antibody, V domains shown)
VH: EVQLQESGAELVKPGASVKMSCKASGFTFTNYNMHWLKQTPGQGLEWIGAIYPENGDTSYNQKFKGKATLTADKASSTAYMHLSSLTSEDSAVYFCARFYYYGSYYGAMDYWGQGTSVTVSS
VL: DIQMTQSPASLSASVGETVTITCRASGNIHNYLAWYQQKQGKSPQLLVYNAKTLADGVPSRFSGSGSGTQFSLKINSLQPEDFGSYYCQHFWSTPWTFGGGTKLEIKR
notes: Used as tissue culture supernatant; also called HB20-03; HB13c
In the case of B12, the “mean linear fluorescence intensity” value was 2220 mean linear fluorescence intensity in the test with human CD20 [1], 469 mean linear fluorescence intensity in the test with human CD20 [2], 765 mean linear fluorescence intensity with human CD20 [3] and 1200 mean linear fluorescence intensity in the test with human CD20 [4].

B13: HB20-4 monoclonal antibody (antibody, V domains shown)
VH: EVQLQESGAELVKPGASVKMSCKASGFTFTNYNMHWVKQTPGQGLEWIGAIYPENGDTSYNQRFKGKATLTADKSSSTAYMHLSSLTSEDTAVYFCARFYYYGSYYGALDYWGQGTSVTVSS
VL: DIQMTQSPASLSASVGETVTITCRASGSIHNYLAWYQQKLGKSPQLLVYNAKTLADGVPSRFSGSGSGTQFSLKINSLQPEDFGSYYCQHFWSIPWTFGGGTKLEIKR
notes: Used as tissue culture supernatant; also called HB20-04; HB13d
On to B13, for which the “mean linear fluorescence intensity” value in the test with human CD20 [1] is 1580 mean linear fluorescence intensity; with human CD20 [2], 397 mean linear fluorescence intensity; in the test with human CD20 [3] it was 578 mean linear fluorescence intensity; with human CD20 [4], 1100 mean linear fluorescence intensity.

The values above are taken from patent US20090136516A1 (DUKE UNIVERSITY, published 2009).
